Columns and labels:
[1] = target: murine TIM-3 extracellular domain protein with hFc tag (mTIM-3-hFc) (mouse) (UniProt Q8VIM0); test: ELISA, coated mouse TIM-3 ECD protein, 0.0067 nM antibody
[2] = target: monkey TIM-3 on CHOK1 stable cell line (CHOK1-cTIM-3) (monkey); test: FACS, CHOK1-cTIM-3 cells, 8 nM antibody
[3] = target: monkey TIM-3 extracellular domain protein with hFc tag (cTIM-3-hFc) (monkey); test: ELISA, coated monkey TIM-3 ECD protein, 0.0067 nM antibody
[4] = target: human TIM-3 extracellular domain protein with hFc tag (hTIM-3-hFc) (human) (UniProt Q8TDQ0); test: ELISA, coated human TIM-3 ECD protein, 6.6667 nM antibody
[5] = target: monkey TIM-3 extracellular domain protein with hFc tag (cTIM-3-hFc) (monkey); test: ELISA, coated monkey TIM-3 ECD protein, 0 nM antibody
[6] = target: human TIM-3 extracellular domain protein with hFc tag (hTIM-3-hFc) (human) (UniProt Q8TDQ0); test: FACS, blocking of hTIM-3-hFc binding to phosphatidylserine on apoptotic Jurkat cells, 0.823 nM antibody
[7] = target: murine TIM-3 extracellular domain protein with hFc tag (mTIM-3-hFc) (mouse) (UniProt Q8VIM0); test: ELISA, coated mouse TIM-3 ECD protein, 6.6667 nM antibody
[8] = target: human TIM-3 extracellular domain protein with hFc tag (hTIM-3-hFc) (human) (UniProt Q8TDQ0); test: FACS, blocking of hTIM-3-hFc binding to phosphatidylserine on apoptotic Jurkat cells, 22.222 nM antibody
[9] = target: human TIM-3 on CHOK1 stable cell line (CHOK1-hTIM-3) (human) (UniProt Q8TDQ0); test: FACS, CHOK1-hTIM-3 cells, 0.32 nM antibody
[10] = target: human TIM-3 extracellular domain protein with hFc tag (hTIM-3-hFc) (human) (UniProt Q8TDQ0); test: FACS, blocking of hTIM-3-hFc binding to phosphatidylserine on apoptotic Jurkat cells, 0 nM antibody
[11] = target: murine TIM-3 extracellular domain protein with hFc tag (mTIM-3-hFc) (mouse) (UniProt Q8VIM0); test: ELISA, coated mouse TIM-3 ECD protein, 0.6667 nM antibody
[12] = target: human TIM-3 on CHOK1 stable cell line (CHOK1-hTIM-3) (human) (UniProt Q8TDQ0); test: FACS, CHOK1-hTIM-3 cells, 0.013 nM antibody
[13] = target: monkey TIM-3 on CHOK1 stable cell line (CHOK1-cTIM-3) (monkey); test: FACS, CHOK1-cTIM-3 cells, 0 nM antibody
[14] = target: murine TIM-3 extracellular domain protein with hFc tag (mTIM-3-hFc) (mouse) (UniProt Q8VIM0); test: ELISA, coated mouse TIM-3 ECD protein, 0.0001 nM antibody
[15] = target: murine TIM-3 extracellular domain protein with hFc tag (mTIM-3-hFc) (mouse) (UniProt Q8VIM0); test: ELISA, coated mouse TIM-3 ECD protein, 0.0007 nM antibody
[16] = target: human TIM-3 extracellular domain protein with hFc tag (hTIM-3-hFc) (human) (UniProt Q8TDQ0); test: FACS, blocking of hTIM-3-hFc binding to phosphatidylserine on apoptotic Jurkat cells, 2.469 nM antibody
[17] = target: monkey TIM-3 extracellular domain protein with hFc tag (cTIM-3-hFc) (monkey); test: ELISA, coated monkey TIM-3 ECD protein, 0.6667 nM antibody
[18] = target: human TIM-3 on CHOK1 stable cell line (CHOK1-hTIM-3) (human) (UniProt Q8TDQ0); test: FACS, CHOK1-hTIM-3 cells, 8 nM antibody
[19] = target: human TIM-3 extracellular domain protein with hFc tag (hTIM-3-hFc) (human) (UniProt Q8TDQ0); test: ELISA, coated human TIM-3 ECD protein, 0.0067 nM antibody
[20] = target: monkey TIM-3 extracellular domain protein with hFc tag (cTIM-3-hFc) (monkey); test: ELISA, coated monkey TIM-3 ECD protein, 6.6667 nM antibody
[21] = target: human TIM-3 extracellular domain protein with hFc tag (hTIM-3-hFc) (human) (UniProt Q8TDQ0); test: FACS, blocking of hTIM-3-hFc binding to phosphatidylserine on apoptotic Jurkat cells, 7.407 nM antibody
[22] = target: human TIM-3 on CHOK1 stable cell line (CHOK1-hTIM-3) (human) (UniProt Q8TDQ0); test: FACS, CHOK1-hTIM-3 cells, 40 nM antibody
[23] = target: human TIM-3 extracellular domain protein with hFc tag (hTIM-3-hFc) (human) (UniProt Q8TDQ0); test: ELISA, coated human TIM-3 ECD protein, 66.667 nM antibody
[24] = target: human TIM-3 extracellular domain protein with hFc tag (hTIM-3-hFc) (human) (UniProt Q8TDQ0); test: ELISA, coated human TIM-3 ECD protein, 0.0001 nM antibody
[25] = target: monkey TIM-3 on CHOK1 stable cell line (CHOK1-cTIM-3) (monkey); test: FACS, CHOK1-cTIM-3 cells, 0.32 nM antibody
[26] = target: human TIM-3 extracellular domain protein with hFc tag (hTIM-3-hFc) (human) (UniProt Q8TDQ0); test: FACS, blocking of hTIM-3-hFc binding to phosphatidylserine on apoptotic Jurkat cells, 200 nM antibody
[27] = target: human TIM-3 extracellular domain protein with hFc tag (hTIM-3-hFc) (human) (UniProt Q8TDQ0); test: ELISA, coated human TIM-3 ECD protein, 0.6667 nM antibody
[28] = target: human TIM-3 on CHOK1 stable cell line (CHOK1-hTIM-3) (human) (UniProt Q8TDQ0); test: FACS, CHOK1-hTIM-3 cells, 0 nM antibody
[29] = target: murine TIM-3 extracellular domain protein with hFc tag (mTIM-3-hFc) (mouse) (UniProt Q8VIM0); test: ELISA, coated mouse TIM-3 ECD protein, 0.0667 nM antibody
[30] = target: monkey TIM-3 on CHOK1 stable cell line (CHOK1-cTIM-3) (monkey); test: FACS, CHOK1-cTIM-3 cells, 0.064 nM antibody

Sequence of human TIM-3 on CHOK1 stable cell line (CHOK1-hTIM-3) (human) (Q8TDQ0 22-301 limits assumed): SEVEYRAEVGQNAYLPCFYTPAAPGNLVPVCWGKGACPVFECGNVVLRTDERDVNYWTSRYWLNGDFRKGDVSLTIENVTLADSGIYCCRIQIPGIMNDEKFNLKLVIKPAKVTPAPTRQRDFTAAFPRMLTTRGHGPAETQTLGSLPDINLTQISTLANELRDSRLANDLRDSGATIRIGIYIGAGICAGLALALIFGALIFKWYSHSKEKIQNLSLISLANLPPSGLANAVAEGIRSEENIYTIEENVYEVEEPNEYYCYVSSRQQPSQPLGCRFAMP
Sequence of monkey TIM-3 extracellular domain protein with hFc tag (cTIM-3-hFc) (monkey) (chain, as listed by the source): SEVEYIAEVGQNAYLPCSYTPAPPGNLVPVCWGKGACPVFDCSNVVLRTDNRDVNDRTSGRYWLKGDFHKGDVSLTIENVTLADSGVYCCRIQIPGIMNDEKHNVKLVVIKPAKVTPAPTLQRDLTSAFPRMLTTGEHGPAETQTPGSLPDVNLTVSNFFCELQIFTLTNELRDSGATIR
Sequence of human TIM-3 extracellular domain protein with hFc tag (hTIM-3-hFc) (human) (Q8TDQ0 22-200): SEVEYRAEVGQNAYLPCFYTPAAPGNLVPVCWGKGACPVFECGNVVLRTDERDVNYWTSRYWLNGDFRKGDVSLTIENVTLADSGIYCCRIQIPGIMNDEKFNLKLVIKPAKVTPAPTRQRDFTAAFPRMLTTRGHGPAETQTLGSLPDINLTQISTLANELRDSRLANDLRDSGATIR
Sequence of murine TIM-3 extracellular domain protein with hFc tag (mTIM-3-hFc) (mouse) (Q8VIM0 other isoform, or with tags, fused parts or gaps): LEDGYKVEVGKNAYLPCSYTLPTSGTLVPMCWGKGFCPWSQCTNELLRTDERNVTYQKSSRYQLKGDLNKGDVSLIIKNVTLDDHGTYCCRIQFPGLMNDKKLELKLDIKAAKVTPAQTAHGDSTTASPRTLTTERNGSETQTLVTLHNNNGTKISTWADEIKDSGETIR
Sequence of monkey TIM-3 on CHOK1 stable cell line (CHOK1-cTIM-3) (monkey) (chain, as listed by the source limits assumed): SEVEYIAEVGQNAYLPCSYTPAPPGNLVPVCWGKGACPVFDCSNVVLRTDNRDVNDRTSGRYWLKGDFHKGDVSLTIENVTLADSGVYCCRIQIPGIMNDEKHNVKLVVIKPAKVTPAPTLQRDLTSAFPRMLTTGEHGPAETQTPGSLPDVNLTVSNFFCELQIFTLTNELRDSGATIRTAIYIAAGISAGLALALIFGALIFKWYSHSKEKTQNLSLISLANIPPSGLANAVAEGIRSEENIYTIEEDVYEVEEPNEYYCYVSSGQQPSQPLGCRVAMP

## human IgG control (antibody)
[1]
  OD450: 0.21
[2]
  Mean fluorescence intensity: 3.7
[3]
  OD450: 0.13
[4]
  OD450: 0.08
[5]
  OD450: 0.13
[6]
  Inhibition ratio (%): 2.8%
[7]
  OD450: 0.3
[8]
  Inhibition ratio (%): -2.8%
[9]
  Mean fluorescence intensity: 2.9
[10]
  Inhibition ratio (%): -2.5%
[11]
  OD450: 0.22
[12]
  Mean fluorescence intensity: 2.8
[13]
  Mean fluorescence intensity: 2.9
[14]
  OD450: 0.22
[15]
  OD450: 0.21
[16]
  Inhibition ratio (%): -3.9%
[17]
  OD450: 0.15
[18]
  Mean fluorescence intensity: 4.5
[19]
  OD450: 0.07
[20]
  OD450: 0.18
[21]
  Inhibition ratio (%): 0.5%
[22]
  Mean fluorescence intensity: 5
[23]
  OD450: 0.14
[24]
  OD450: 0.07
[25]
  Mean fluorescence intensity: 3.1
[26]
  Inhibition ratio (%): -7.8%
[27]
  OD450: 0.07
[28]
  Mean fluorescence intensity: 2.8
[29]
  OD450: 0.21
[30]
  Mean fluorescence intensity: 2.9
